The text below walks through data of patent US20250304712A1 (NATIONAL UNIVERSITY OF SINGAPORE, published 2025).

Experiment [1] has as its target T1, Lymphocyte antigen 6 family member K (LY6K) expressed on the cell surface of human cells (human, UniProt Q17RY6 18-138).
T1 construct: whole, on cells; overexpressed in HEK293T for ADCC; also called LY6K on Ca Ski, Calu-1 and other human cancer cell lines; HEK293T-Ly6K overexpressing cells
T1 sequence (looked up): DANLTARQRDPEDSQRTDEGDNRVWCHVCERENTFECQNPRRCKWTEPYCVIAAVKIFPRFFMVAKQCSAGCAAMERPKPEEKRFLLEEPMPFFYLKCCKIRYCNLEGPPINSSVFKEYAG
Put plainly: flow cytometry on human cancer cell lines. (In flow cytometry, cells or beads pass a laser one at a time.)

Experiment [2] addresses T1, Lymphocyte antigen 6 family member K …. Put plainly: flow cytometry on Calu-1 cells.

B1: murine anti-LY6K antibody G57 (antibody, V domains shown)
VH: EVQLVESGGDLVKPGGSLKLSCAASGFTFNSYGMSWVRQTPDKRLEWVATISSGGTYTYYSDSVKGRFTISRDNAKNILYLHMSSLKSEDTAMYYCARHDWDFFDYWGQGTTLTVSS
VL: DVVMTQTPLSLPVSLGDQASISCRSSQSLVHTDGDTYLNWYLQKPGQSPKLLIYKVSNRFSGVPDRFSGSGSGTDFTLKIRRVEAEDLGVYFCSQNTHVYTFGGGTKLE
notes: Hybridoma-derived; also called Ms G57
With B1, in experiment [1], the binding result is reported as “binds”.

B2: humanized 22C-G8 (antibody, V domains shown)
VH: QVQLVQSGAEVKKPGASVKVSCKASGYTFTSYWMHWVRQAPGQGLEWIGEINPSNGGANYNEKFKRRATMTVDKSTSTVYMELSSLRSEDTAVYYCTMGGNFFFAYWGQGTLVTVSS
VL: DVVMTQSPLSLSVTLGQPASISCKSSQSLLASDGKTYLNWFQQRPGQSPRRLIYLVSKLDSGVPDRFSGSGSGTDFTLKISRVEAEDVGVYYCWQGSHFPLTFGGGTKVE
notes: CDR-grafted into human frameworks; also called Hu22C-G8; Hu 22C-G8
As for B2, the binding result in experiment [2] is given as “binds”.
